One assay deals with T1, PlexinA2-ECD-Fc (human, UniProt O75051 35-1237).
T1 construct: extracellular domain; Bought reagent
T1 sequence (looked up): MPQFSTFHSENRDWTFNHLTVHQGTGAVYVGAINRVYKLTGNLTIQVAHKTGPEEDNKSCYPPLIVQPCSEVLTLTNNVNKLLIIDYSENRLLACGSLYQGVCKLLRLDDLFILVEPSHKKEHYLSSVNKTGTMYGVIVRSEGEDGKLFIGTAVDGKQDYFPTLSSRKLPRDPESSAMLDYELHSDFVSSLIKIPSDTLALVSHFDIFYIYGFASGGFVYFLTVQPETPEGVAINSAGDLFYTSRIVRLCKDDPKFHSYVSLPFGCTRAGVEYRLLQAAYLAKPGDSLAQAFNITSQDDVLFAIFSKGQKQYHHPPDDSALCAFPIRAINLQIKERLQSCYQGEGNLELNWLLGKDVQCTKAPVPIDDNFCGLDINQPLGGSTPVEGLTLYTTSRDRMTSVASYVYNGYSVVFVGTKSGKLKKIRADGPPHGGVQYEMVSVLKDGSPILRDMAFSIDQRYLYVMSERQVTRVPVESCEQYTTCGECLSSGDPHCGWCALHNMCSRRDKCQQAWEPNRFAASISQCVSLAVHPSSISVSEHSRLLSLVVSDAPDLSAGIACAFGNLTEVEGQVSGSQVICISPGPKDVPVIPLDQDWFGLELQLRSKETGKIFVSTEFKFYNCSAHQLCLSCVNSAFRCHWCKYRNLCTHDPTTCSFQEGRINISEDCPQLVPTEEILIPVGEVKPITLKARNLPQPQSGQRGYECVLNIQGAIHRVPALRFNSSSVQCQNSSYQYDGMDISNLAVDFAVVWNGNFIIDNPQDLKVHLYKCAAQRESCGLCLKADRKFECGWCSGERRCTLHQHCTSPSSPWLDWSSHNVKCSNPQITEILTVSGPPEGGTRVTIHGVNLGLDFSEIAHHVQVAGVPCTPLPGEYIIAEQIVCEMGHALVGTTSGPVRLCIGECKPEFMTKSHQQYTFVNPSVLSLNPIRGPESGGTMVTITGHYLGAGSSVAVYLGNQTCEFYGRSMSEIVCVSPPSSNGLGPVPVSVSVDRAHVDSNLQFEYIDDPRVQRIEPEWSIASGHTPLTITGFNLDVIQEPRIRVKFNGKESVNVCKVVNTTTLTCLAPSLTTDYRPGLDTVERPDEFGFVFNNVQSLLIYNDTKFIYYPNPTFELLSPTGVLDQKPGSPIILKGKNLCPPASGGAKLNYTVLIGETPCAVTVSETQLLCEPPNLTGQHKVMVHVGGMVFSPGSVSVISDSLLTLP
The assay is described as follows: ELISA, coated ECD-Fc, antibody 0.002 ng/mL. The protocol: Wells of 96-well EIA/RIA high binding plates (Costar, #2592) are coated with 100 μL of 1 μg/mL human c-Met extracellular domain (ECD)-Fc-Flis fusion (SEQ ID NO:72), RON-ECD-Fc (R&D Systems, #1947-MS), or PlexinA2-ECD-Fc (Abnova, Taipei, Taiwan #H00005362-P01) in coating buffer (BioFX Labs, # COAT-1000-01) overnight at 4° C. […] After the plates are washed, 100 μL/well of substrate solution (BioFx, #TMBW-1000-01) are added and the plates are incubated for 10 min. at room temperature. 100 μL/well of stop solution (BioFx, # LSTP-1000-01) are added to stop the reaction. The colorimetric signals are developed and read at 450 nm using a SpectraMax 190 plate reader (Molecular Devices, Sunnyvale, Calif.). c-Met antibody binding to c-Met, RON and PlexinA2 ECDs is proportional to color signal production.
(ELISA stands for enzyme-linked immunosorbent assay.)

A further assay deals with T2, Rat c-Met-Flis-Fc ECD (rat).
T2 construct: also called Rat cMet-ECD-Fc-Flis; rat c-Met ECD
T2 sequence (chain, as listed by the source limits assumed): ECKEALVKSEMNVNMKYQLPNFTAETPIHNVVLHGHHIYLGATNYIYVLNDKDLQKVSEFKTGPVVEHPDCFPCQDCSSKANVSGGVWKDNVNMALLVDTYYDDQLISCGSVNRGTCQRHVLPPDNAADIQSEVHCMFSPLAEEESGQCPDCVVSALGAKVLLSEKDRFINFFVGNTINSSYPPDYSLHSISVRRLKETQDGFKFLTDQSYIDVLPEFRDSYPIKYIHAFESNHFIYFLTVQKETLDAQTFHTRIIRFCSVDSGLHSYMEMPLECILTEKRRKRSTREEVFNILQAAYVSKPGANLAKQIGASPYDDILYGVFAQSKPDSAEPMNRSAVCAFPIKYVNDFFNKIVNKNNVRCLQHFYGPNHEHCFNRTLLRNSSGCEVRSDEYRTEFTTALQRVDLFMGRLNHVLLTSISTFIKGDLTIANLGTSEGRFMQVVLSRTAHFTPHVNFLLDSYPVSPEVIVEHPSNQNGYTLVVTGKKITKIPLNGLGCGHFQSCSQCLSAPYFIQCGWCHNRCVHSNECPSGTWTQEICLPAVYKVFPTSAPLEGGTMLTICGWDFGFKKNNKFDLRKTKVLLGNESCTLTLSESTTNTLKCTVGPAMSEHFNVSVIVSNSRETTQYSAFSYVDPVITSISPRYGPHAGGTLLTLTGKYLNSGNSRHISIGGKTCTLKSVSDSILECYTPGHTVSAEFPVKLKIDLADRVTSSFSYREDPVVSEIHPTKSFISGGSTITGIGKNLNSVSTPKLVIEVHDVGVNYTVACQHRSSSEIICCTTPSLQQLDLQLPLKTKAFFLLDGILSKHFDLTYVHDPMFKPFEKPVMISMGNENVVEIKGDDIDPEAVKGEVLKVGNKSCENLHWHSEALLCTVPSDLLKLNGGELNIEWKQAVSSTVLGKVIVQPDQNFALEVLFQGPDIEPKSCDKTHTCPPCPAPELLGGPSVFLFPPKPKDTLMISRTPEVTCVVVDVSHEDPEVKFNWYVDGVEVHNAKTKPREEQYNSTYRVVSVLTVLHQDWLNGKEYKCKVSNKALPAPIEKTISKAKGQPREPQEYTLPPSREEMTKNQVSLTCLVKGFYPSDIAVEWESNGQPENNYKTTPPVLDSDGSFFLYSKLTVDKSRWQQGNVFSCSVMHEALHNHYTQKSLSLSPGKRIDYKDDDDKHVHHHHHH
The assay is described as follows: SPR (Biacore), antibody captured. How it is done:
A Biacore® 2000 instrument is used to measure the binding kinetics of c-Met antibodies to human, cynomolgus monkey, and rat c-Met ECDs. Measurements are performed at 25° C. Samples are dissolved in HBS-EP buffer (150 mM sodium chloride, 3 mM EDTA, 0.005% (w/v) surfactant P-20, and 10 mM N-2-hydroxyethylpiperazine-N′-2-ethanesulfonic acid (HEPES) at pH 7.4; #BR-1001-88).
Binding is evaluated using multiple cycles. Each cycle is performed at a flow rate of 50 μL/min., and consists of the following steps: injection of about 10 μL of a c-Met antibody at 10 μg/mL aiming at a capture of 40-100 RUs, injection of 250 μL of human, cynomolgus, or rat c-Met-Flis-Fc ECD (starting at 100 nM and using two-fold serial dilutions for each cycle) followed by 20 min. for dissociation, and regeneration using about 30 μL of 10 mM glycine hydrochloride, pH 1.5. Association and dissociation rates for each cycle are evaluated using a “1:1 (Langmuir) binding” model in the BIAevaluation software, version 4.1.

B1: C8-6 (antibody, human IgG2, kappa, V domains shown)
VH: QVQLVQSGAEVKKPGASVKVSCKASGYTFTDYYMHWVRQAPGQGLEWMGRVNPNRGGTTYNQKFEGRVTMTTDTSTSTAYMELRSLRSDDTAVYYCARTNWLDYWGQGTTVTVSS
VL: DIQMTQSPSSLSASVGDRVTITCSVSSSVSSIYLHWYQQKPGKAPKLLIYSTSNLASGVPSRFSGSGSGTDFTLTISSLQPEDFATYYCIQYSGYPLTFGGGTKVEIKR
notes: Called IgG4, kappa; also called Mab C8-6
For the molecule B1, the “Average A450 nm” value with PlexinA2-ECD-Fc was determined as 0.099 A450 nm. For the same molecule, in the assay with Rat c-Met-Flis-Fc ECD, the binding result is on record as “no binding”.

The values are drawn from US20100129369A1 (Eli Lilly, published 2010).
